Assay results published in paper PMC10127133, “Structural insights into a cooperative switch between one and two FimH bacterial adhesins binding pauci- and high-mannose type N-glycan receptors” (The Journal of Biological Chemistry, 2023).

Biological target: T1, FimH lectin domain (residues Phe1-Thr158) (Escherichia coli, UniProt P08191 22-179)
T1 construct: FimH type-1 fimbrial adhesin of Escherichia coli, lectin domain, residues Phe1-Thr158; No tag is mentioned; also called FimH adhesin; source: E. coli C43(DE3), pET24a vector, purified (sulfopropyl fast flow cation exchange chromatography)
T1 sequence (P08191 22-179): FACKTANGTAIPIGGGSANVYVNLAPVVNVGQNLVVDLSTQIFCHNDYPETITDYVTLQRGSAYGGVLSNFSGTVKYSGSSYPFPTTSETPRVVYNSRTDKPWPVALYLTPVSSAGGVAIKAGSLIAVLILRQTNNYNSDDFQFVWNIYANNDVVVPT
Experiment: SPR; single-cycle kinetics on BIAcore T200; ω1-glycoprotein immobilised on a CM5 chip via primary amino groups (EDC/NHS); FimH as analyte at 14.4, 7.17, 3.60, 1.80, 0.9 μM; 20 mM Hepes, 150 mM NaCl, 0.005% Tween; 30 μl/min; 298 K; fit to the Langmuir 1:1 model
Details: both partners purified

| Binder | Kd [nM] | koff [s⁻¹] | kon [M⁻¹ s⁻¹] |
| --- | --- | --- | --- |
| omega-1 (ω1) glycoprotein carrying Man3Gn2 (natural protein, N-glycans Man3Gn2 (oligomannose-3, paucimannosidic); sites not stated) QNRWDYYVFSVTWPPTYCESIQCRLPRGLRDFTIHGLWPTIFPNRQPNCTGSLRFDIRRLQGIRNELDLMWPHLKNYRESPSFWKHEFEKHGLCAVEDPQVFNQYGYFKFGIKLMQKLNLLKTLMKYKISPHDSRQYDTINLMNVLEREFGYNGSANCIRKPGRRGMYHLEEVHVCLNRKHEFMNCPFLGNCPKKFIFPPFQ | 33.6 | 0.00013 | 3890 |
| omega-1 (ω1) glycoprotein carrying X1Man3Gn2F1[3] (natural protein, N-glycans X1Man3Gn2F1[3] (oligomannose-3 with β1,2-xylose on mannose 3 and α1,3 core fucose); sites not stated) QNRWDYYVFSVTWPPTYCESIQCRLPRGLRDFTIHGLWPTIFPNRQPNCTGSLRFDIRRLQGIRNELDLMWPHLKNYRESPSFWKHEFEKHGLCAVEDPQVFNQYGYFKFGIKLMQKLNLLKTLMKYKISPHDSRQYDTINLMNVLEREFGYNGSANCIRKPGRRGMYHLEEVHVCLNRKHEFMNCPFLGNCPKKFIFPPFQ | 6000 | 0.0015 | 257 |
| omega-1 (ω1) glycoprotein carrying Man3Gn2F1[3] (natural protein, N-glycans Man3Gn2F1[3] (α1,3 core-fucosylated oligomannose-3); sites not stated) QNRWDYYVFSVTWPPTYCESIQCRLPRGLRDFTIHGLWPTIFPNRQPNCTGSLRFDIRRLQGIRNELDLMWPHLKNYRESPSFWKHEFEKHGLCAVEDPQVFNQYGYFKFGIKLMQKLNLLKTLMKYKISPHDSRQYDTINLMNVLEREFGYNGSANCIRKPGRRGMYHLEEVHVCLNRKHEFMNCPFLGNCPKKFIFPPFQ | 128 | 6.72e-05 | 525 |
| omega-1 (ω1) glycoprotein carrying Man3Gn2F1[6] (natural protein, N-glycans Man3Gn2F1[6] (α1,6 core-fucosylated oligomannose-3); sites not stated) QNRWDYYVFSVTWPPTYCESIQCRLPRGLRDFTIHGLWPTIFPNRQPNCTGSLRFDIRRLQGIRNELDLMWPHLKNYRESPSFWKHEFEKHGLCAVEDPQVFNQYGYFKFGIKLMQKLNLLKTLMKYKISPHDSRQYDTINLMNVLEREFGYNGSANCIRKPGRRGMYHLEEVHVCLNRKHEFMNCPFLGNCPKKFIFPPFQ | 134 | 8.89e-05 | 663 |
